Target: P02671
Assay: SEC-MALS

B1: Fib1 fibrinogen (protein)
chain 1: GPRVVERHQSACKDSDWPFCSDEDWNYKCPSGCRMKGLIDEVNQDFTNRINKLKNSLFEYQKNNKDSHSLTTNIMEILRGDFSSANNRDNTYNRVSEDLRSRIEVLKRKVIEKVQHIQLLQKNVRAQLVDMKRLEVDIDIKIRSCRGSCSRALAREVDLKDYEDQQKQLEQVIAKDLLPSRDRQHLPLIKMKPVPDLVPGNFKSQLQKVPPEWKALTDMPQMRMELERPGGNEITRGGSTSYGTGSETESPRNPSSAGSWNSGSSGPGSTGNRNPGSSGTGGTATWKPGSSGPGSTGSWNSGSSGTGSTGNQNPGSPRPGSTGTWNPGSSERGSAGHWTSESSVSGSTGQWHSESGSFRPDSPGSGNARPNNPDWGTFEEVSGNVSPGTRREYHTEKLVTSKGDKELRTGKEKVTSGSTTTTRRSCSKTVTKTVIGPDGHKEVTKEVVTSEDGSDCPEAMDLGTLSGIGTLDGFRHRHPDEAAFFDTASTGKTFPGFFSPMLGEFVSETESRGSESGIFTNTKESSSHHPGIAEFPSRGKSSSYSKQFTSSTSYNRGDSTFESKSYKMADEAGSEADHEGTHSTKRGHAKSRPVRDCDDVLQTHPSGTQSGIFNIKLPGSSKIFSVYCDQETSLGGWLLIQQRMDGSLNFNRTWQDYKRGFGSLNDEGEGEFWLGNDYLHLLTQRGSVLRVELEDWAGNEAYAEYHFRVGSEAEGYALQVSSYEGTAGDALIEGSVEEGAEYTSHNNMQFSTFDRDADQWEENCAEVYGGGWWYNNCQAANLNGIYYPGGSYDPRNNSPYEIENGVVWVSFRGADYSLRAVRMKIRPLVTQ
chain 2: GHRPLDKKREEAPSLRPAPPPISGGGYRARPAKAAATQKKVERKAPDAGGCLHADPDLGVLCPTGCQLQEALLQQERPIRNSVDELNNNVEAVSQTSSSSFQYMYLLKDLWQKRQKQVKDNENVVNEYSSELEKHQLYIDETVNSNIPTNLRVLRSILENLRSKIQKLESDVSAQMEYCRTPCTVSCNIPVVSGKECEEIIRKGGETSEMYLIQPDSSVKPYRVYCDMNTENGGWTVIQNRQDGSVDFGRKWDPYKQGFGNVATNTDGKNYCGLPGEYWLGNDKISQLTRMGPTELLIEMEDWKGDKVKAHYGGFTVQNEANKYQISVNKYRGTAGNALMDGASQLMGENRTMTIHNGMFFSTYDRDNDGWLTSDPRKQCSKEDGGGWWYNRCHAANPNGRYYWGGQYTWDMAKHGTDDGVVWMNWKGSWYSMRKMSMKIRPFFPQQ
chain 3: YVATRDNCCILDERFGSYCPTTCGIADFLSTYQTKVDKDLQSLEDILHQVENKTSEVKQLIKAIQLTYNPDESSKPNMIDAATLKSRKMLEEIMKYEASILTHDSSIRYLQEIYNSNNQKIVNLKEKVAQLEAQCQEPCKDTVQIHDITGKDCQDIANKGAKQSGLYFIKPLKANQQFLVYCEIDGSGNGWTVFQKRLDGSVDFKKNWIQYKEGFGHLSPTGTTEFWLGNEKIHLISTQSAIPYALRVELEDWNGRTSTADYAMFKVGPEADKYRLTYAYFAGGDAGDAFDGFDFGDDPSDKFFTSHNGMQFSTWDNDNDKFEGNCAEQDGSGWWMNKCHAGHLNGVYYQGGTYSKASTPNGYDNGIIWATWKTRWYSMKKTTMKIIPFNRLTIGEGQQHHLGGAKQVRPEHPAETEYDSLYPEDDL
With B1 as the protein, how does the “relative mass of the aggregates” value read?
The value was “about 4% of the total mass of fibrinogen”.
